Measured values from the supplement of paper PMC7877785.
± gives the uncertainty stated by the source.

Assay: self-splicing fitness, log relative to wild type (ln ratio); higher = more splicing; Tetrahymena group I intron in knt gene, E. coli kanamycin selection, DiMSum; sequences stand for … in CUCUCU…GGAGGGAAAAGUUAUCAGGCAUGCACCUGGUAGCUAGUCUUUAAACCAAUAGAUUGCAUCGGUUUAAAAGGCAAGACCGUCAAAUUGCGGGAAAGGGGUCAACAGCCGUUCAGUACCAAGUCUCAGGGGAAACUUUGAGAUGGCCUUGCAAAGGGUAUGGUAAUAAGCUGACGGACAUGGUCCUAACCACGCAGCCAAGUCCUAAGUCAACAGAUCUUCUGUUGAUAUGGAUGCAGUUCACAGACUAAAUGUCGGUCGGGGAAGAUGUAUUCUUCUCAUAAGAUAUAGUCGGACCUCUCCUUAAUGGGAGCUAGCGGAUGAAGUGAUGCAACACUGGAGCCGCUGGGAACUAAUUUGUAUGCGAAAGUAUAUUGAUUAGUUUUGGAGUACUCGUGGUCG
Procedure, shortened: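 Colonies from six replicate transformations of E. coli BL21(DE3) were pooled and amplicon-sequenced on an Illumina HiSeq 2500. The library placed an intron with all eight P1ex-region nucleotides randomised inside the knt kanamycin-resistance gene on pET-22b(+), and cells grew overnight at 37°C or 30°C on LB agar with or without 25 μg/mL kanamycin (plus 100 μg/mL carbenicillin, 50 μM IPTG, 0.2% rhamnose). Fitness is the DiMSum error-weighted combination of wild-type-normalised replicate fold changes, kanamycin versus none.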

Sequence | self-splicing fitness (ln) (37 °C) | self-splicing fitness (ln) (30 °C)
AGGGAGCAAUAUUACGAUAU | -1.88 ± 0.47 | 
CUGGAGCAAUAUUACGGAGU |  | -2.37 ± 0.22
CGGCAGCAAUAUUACGAGAU | -2.81 ± 0.27 | -1.99 ± 0.19
GACUAGCAAUAUUACGAAGU | -1.82 ± 0.22 | -3.08 ± 0.17
GAGCAGCAAUAUUACGCAUC | -3.08 ± 0.37 | -3.22 ± 0.2
GUACAGCAAUAUUACGGCCG | -0.534 ± 0.13 | -1.89 ± 0.1
UACUAGCAAUAUUACGCUGU | -3.27 ± 0.33 | -4.54 ± 0.28
GGCUAGCAAUAUUACGGGAA | -1.06 ± 0.2 | -0.617 ± 0.14
GUCAAGCAAUAUUACGGACU | -2.72 ± 0.26 | -4.38 ± 0.39
AAUCAGCAAUAUUACGAUUC | -3.73 ± 0.39 | -2.99 ± 0.2
AUGUAGCAAUAUUACGUAGA | -2.65 ± 0.29 | -3.11 ± 0.32
CUGUAGCAAUAUUACGGUAG | -1.98 ± 0.25 | -2.9 ± 0.21
AGUGAGCAAUAUUACGAAGG | -1.41 ± 0.38 | -3.45 ± 0.37
ACGAAGCAAUAUUACGGAAA | -3.02 ± 0.21 | -2.38 ± 0.17
UCUAAGCAAUAUUACGCAGU | -1.24 ± 0.15 | -1.86 ± 0.16
GCUCAGCAAUAUUACGUUGG | -2.46 ± 0.19 | -1.96 ± 0.17
CCUUAGCAAUAUUACGCCAA | -0.755 ± 0.31 | -2.7 ± 0.34
GUUCAGCAAUAUUACGUUGU | -0.287 ± 0.11 | -1.68 ± 0.096
GUCUAGCAAUAUUACGUUUU | -0.759 ± 0.084 | -1.2 ± 0.08
ACGAAGCAAUAUUACGCUUC | -2.59 ± 0.2 | -3.44 ± 0.19
CACCAGCAAUAUUACGCCCG | 0.343 ± 0.19 | -0.197 ± 0.14
GAGCAGCAAUAUUACGUGAC | -1.64 ± 0.15 | -2.38 ± 0.15
CUCAAGCAAUAUUACGUUAG | -1.47 ± 0.075 | -2.26 ± 0.062
CUCUAGCAAUAUUACGCGGA | -1.9 ± 0.34 | -3.1 ± 0.4
UGGGAGCAAUAUUACGACGU | -2.37 ± 0.29 | -2.93 ± 0.22

Sequence | self-splicing fitness (ln) (37 °C) | self-splicing fitness (ln) (30 °C)
CCCAAGCAAUAUUACGGGUA | -2.81 ± 0.16 | -4.37 ± 0.28
AUUGAGCAAUAUUACGGGGC | -3.09 ± 0.3 | -3.06 ± 0.26
GGCGAGCAAUAUUACGACGU | -0.783 ± 0.21 | -1.36 ± 0.16
GGACAGCAAUAUUACGACAU | -0.0143 ± 0.032 | -0.378 ± 0.012
UCCAAGCAAUAUUACGGCUU | -1.53 ± 0.25 | -3.94 ± 0.4
UCCCAGCAAUAUUACGUACU | -0.776 ± 0.14 | -3.77 ± 0.19
GGGCAGCAAUAUUACGAUAC | 0.201 ± 0.12 | -1.1 ± 0.11
UUUAAGCAAUAUUACGCUCC | -0.172 ± 0.29 | -2.1 ± 0.22
CCGGAGCAAUAUUACGGGAC | -2.5 ± 0.3 | -3.11 ± 0.31
CUCAAGCAAUAUUACGUCGC | -2.27 ± 0.33 | -4.2 ± 0.39
UCUCAGCAAUAUUACGCGCU | -3.12 ± 0.43 | 
UGUAAGCAAUAUUACGCAGA | -1.72 ± 0.34 | -3.67 ± 0.42
CCGUAGCAAUAUUACGGAUU | -3.01 ± 0.29 | 
GAGGAGCAAUAUUACGACCG | -0.621 ± 0.31 | 
AAUUAGCAAUAUUACGGCCC | -0.626 ± 0.29 | -0.766 ± 0.18
UAUUAGCAAUAUUACGGUGG | -1.22 ± 0.2 | -2.71 ± 0.28
CGAUAGCAAUAUUACGGCCU | -0.545 ± 0.2 | -1.67 ± 0.19
GCCCAGCAAUAUUACGACCG | -1.55 ± 0.21 | -2.84 ± 0.18
GGGUAGCAAUAUUACGUCGC | 0.272 ± 0.21 | -1.04 ± 0.23
UUUCAGCAAUAUUACGCUUC | -2.33 ± 0.38 | -0.771 ± 0.21
GACAAGCAAUAUUACGGGAU | -0.632 ± 0.12 | -2.65 ± 0.14
GGAAAGCAAUAUUACGCCAG | -0.912 ± 0.35 | 
CGAGAGCAAUAUUACGCGUU | -2.46 ± 0.49 | -2.8 ± 0.36
ACAUAGCAAUAUUACGCUGA | -0.74 ± 0.12 | -1.47 ± 0.093
